# Patent US20090175892A1
# Columns and labels:
# [1] = biological target: T1, HLA-B*0702 molecule on HLA-B*0702 transfected TAP deficient T2 cells (T2-B7) (human); assay: MHC stabilization assay on T2-B7 cells, flow cytometry with ME.1; ratio of concentration giving 20% of maximal binding against reference peptide R10TV; conditions: remark: other sources report otherwise
# [2] = biological target: T1, HLA-B*0702 molecule on HLA-B*0702 …; assay: MHC stabilization assay on T2-B7 cells, ME-1 staining; ratio of concentration inducing 20% of HLA-B*0702 expression against reference peptide CMV265-274; conditions: remark: other sources report otherwise
relative avidity [1],RA (relative affinity) [2],Binder
4.7,–,"RPAEEATSL [hTERT peptide p277 (…, residues 277-285)]"
–,> 10,"DPRRLVQLL [hTERT peptide p444 (…, residues 444-452)]"
